Measurements published in patent US11807881B2, “Polypeptide, fusion polypeptide, and antibiotic against gram-negative bacteria comprising same” (priority 2020, dated 2023).

Assays:
Assay type in all cases: cell-based
[1] = test system: Campylobacter jejuni; test: Spot test (halo zone); parameters: key: ‘◯’ means production of the halo zone; details: C. jejuni KCTC 5327
Excerpt: (§1) In the present example, in order to investigate a target bacteria spectrum of the bacteriophage PBPA90 selected in the Examples 1.1 and 1.2 and endolysin LNT101 separated and purifying in the Example 1.3, the antibacterial activity against gram negative bacterium such as Pseudomonas aeruginosa ATCC13388, ATCC9027, ATCC10145, ATCC15692, ATCC15522, ATCC25619, ATCC27853, CCARM2134, CCARM2200, CCARM2029, CCARM2144, CCARM2298, CCARM2326, PR01957, E. coli ATCC8739, Enterobacter cloacae CCARM0252, Klebsiella pneumoniae KCTC2261, Klebsiella aerogenes CCARM16006, Campylobacter jejuni KCTC5327, Cronobacter sakazakii KCTC2949, Salmonella typhimurium ATCC14028, Salmonella enteritidis ATCC13076 was tested.
(§2) The target bacteria spectrum of the bacteriophage PBPA90 and endolysin LNT101 was confirmed by a spot test. For the spot test, bacterium sterilized in 4 ml top agar (1% Tryptone, 0.5% Yeast extract, 0.5% NaCl, 0.7% agar) of 1×10^11 CFU/200 μl were added and poured to a LB plate. After hardening the top agar, the bacteriophage PBPA90 10 μl (1×10^8 PFU/ml) or LNT101 10 μl (2 mg/ml) was spotted, and it was incubated at 37° C. for 18 hours.

[2] = test system: Cronobacter sakazakii; test: Spot test (halo zone); parameters: key: ‘◯’ means production of the halo zone; details: C. sakazakii KCTC 2949
Excerpt: as §1, §2

[3] = test system: E. coli; test: Spot test (halo zone); parameters: key: ‘◯’ means production of the halo zone; details: E. coli ATCC 8739
Excerpt: as §1, §2

[4] = test system: Enterobacter cloacae; test: Spot test (halo zone); parameters: key: ‘◯’ means production of the halo zone; details: E. cloacae CCARM 0252
Excerpt: as §1, §2

[5] = test system: Klebsiella aerogenes; test: Spot test (halo zone); parameters: key: ‘◯’ means production of the halo zone; details: K. aerugenes CCARM 16006
Excerpt: as §1, §2

[6] = test system: Klebsiella pneumoniae; test: Spot test (halo zone); parameters: key: ‘◯’ means production of the halo zone; details: K. pneumoniae KCTC 2261
Excerpt: as §1, §2

[7] = test system: Pseudomonas aeruginosa; test: Spot test (halo zone); parameters: key: ‘◯’ means production of the halo zone
Excerpt: as §1, §2

[8] = test system: Salmonella enteritidis; test: Spot test (halo zone); parameters: key: ‘◯’ means production of the halo zone; details: S. enteritidis ATCC 13076
Excerpt: as §1, §2

[9] = test system: Salmonella typhimurium; test: Spot test (halo zone); parameters: key: ‘◯’ means production of the halo zone; details: S. typhimurium ATCC 14028
Excerpt: as §1, §2

[10] = test system: gram negative bacterium (Pseudomonas aeruginosa (PA01; ATCC 15692) and Acinetobacter baumannii (ATCC 19606)); test: NPN uptake assay (outer membrane permeabilization)
Description: In order to evaluate the outer membrane permeabilization activity of the gram negative bacterium of the fusion polypeptide prepared in the Example 3.2, NPN uptake assay was performed. As representative gram negative bacterium, Pseudomonas aeruginosa and Acinetobacter baumannii were used for the test.
Pseudomonas aeruginosa (PA01; ATCC 15692) or Acinetobacter baumannii (ATCC 19606) was cultured by OD600=0.3 and centrifuged at 1,000 g for 10 minutes, and then it was resuspended with a ½ volume of 5 mM HEPES (Hydroxyethyl piperazine Ethane Sulfonic acid) (pH 7.2). 40 μM NPN (1-N-phenylnaphthylamine) solution (40 μM NPN in 5 mM HEPES, pH7.2) 50 μl, the test substance (LNT101, LNT102 or LNT103) 50 μl, and strain suspension solution 100 μl (total 200 μl) were added to a microplate and reacted at 37° C. for 1 hour. Then, fluorescence was measured under the condition of excitation 350 nm and emission 420 nm with a microplate reader (Infinite M200 Pro, TECAN). As a positive control group, Cecropin A (SEQ ID NO: 8), EDTA, or polymyxin B was used, and as a negative control group, 10 μM NPN solution was used. All the experiments were performed in 3 sets. […]

[11] = test system: Huh-7 cell line
Description: In vitro toxicity of the fusion polypeptide LNT103 was evaluated by cell cytotoxicity assay (WST assay) using Huh-7 cell line and hemolysis assay using sheep blood (MB cell).
The process of progressing the cell cytotoxicity assay was as follows. The Huh07 cell culture solution was prepared and aliquoted in an amount of […] per well in a 96 well plate, and it was cultured in a CO2 incubator for 24 hours. Then, PBS as a negative control and 1% (w/v) triton X-100 as a positive control were treated, and as an experimental group, the fusion polypeptide LNT103 was treated at a concentration of 0.25, 0.5, or 1 mg/ml, and then it was left in a CO2 incubator for 24 hours and 48 hours. Then, the cell viability was measured using D-Plus™ CCK cell viability assay kit (Dongin LS), and the result was shown in FIG. 18.

B1: LNT101: endolysin derived from bacteriophage PBPA90, amino acid sequence SEQ ID NO: 1 (259 aa), purified with 6× His tag (protein)
chain: MGTVLKRGDRGSAVEDLQMKLRVAGYAVSADGIFGGDTEKAVRDFQASKALVVDGKVGPATLAELAKSATVPAKWEAIPFPTANKSRSAAMPTLNAVGAMTGTDSRLLATFASIESAFDYTVKASTSSATGWFQFLDATWDDMIKAHGSKYGIPKDPTRALRKDPRANALMGAEFLKGNAAVLRPVINREPSDTDLYLAHFLGAGGAKKFLSADQKTLGEVLFPKPAKANPSIFSNKGVPRTLAEIYKLFEDKVSKHRA
modifications: 6xHis tag; synthetic_Endolysin LNT101
With B1 the “production of the halo zone” value [1] was “◯”, the “production of the halo zone” value [2] was “◯” and the “production of the halo zone” value [3] was “◯”. For the same molecule, the “production of the halo zone” value [4] was “◯”, the “production of the halo zone” value [5] was “◯” and the “production of the halo zone” value [6] was “◯”. For the same molecule, the “production of the halo zone” value ([7]; P. aeruginosa ATCC 9027) was “◯”, the “production of the halo zone” value ([7]; P. aeruginosa ATCC 10145) was “◯” and the “production of the halo zone” value ([7]; P. aeruginosa ATCC 13388, 10 μl (2 mg/ml), 37° C. 18 hours) was “◯”. The “production of the halo zone” value ([7]; P. aeruginosa ATCC 15522) was “◯”, the “production of the halo zone” value ([7]; P. aeruginosa ATCC 15692) was “◯” and the “production of the halo zone” value ([7]; P. aeruginosa ATCC 25619) was “◯”. The “production of the halo zone” value ([7]; P. aeruginosa ATCC 27853) was “◯”, the “production of the halo zone” value ([7]; P. aeruginosa CCARM 2029) was “◯” and the “production of the halo zone” value ([7]; P. aeruginosa CCARM 2134) was “◯”. For the same molecule, the “production of the halo zone” value ([7]; P. aeruginosa CCARM 2144) was “◯”, the “production of the halo zone” value ([7]; P. aeruginosa CCARM 2200) was “◯” and the “production of the halo zone” value ([7]; P. aeruginosa CCARM 2298) was “◯”. For the same molecule, the “production of the halo zone” value ([7]; P. aeruginosa CCARM 2326) was “◯”, the “production of the halo zone” value ([7]; P. aeruginosa PR1957) was “◯” and the “production of the halo zone” value [8] was “◯”. The “production of the halo zone” value [9] was “◯”.

B2: LNT103: fusion polypeptide [Cecropin A]-[linker (GSGSGS)]-[endolysin LNT102]; SEQ ID NO: 15 (MAS, His tag) used in the tests (protein)
chain: MASKWKLFKKIEKVGQNIRDGIIKAGPAVAVVGQATQIAKGSGSGSMGTVLKRGDRGSAVEDLQMKLNVAGYNLSADGIFGGDTEKAVRDVQAGAGLVVDGKVGPKTLYAIAKSATVPAKWEAIPFPTANKSRSAAMPTLNAVGAMTGVDSRLLATFASIESAFDYTVKAKTSSATGWFQFLDATWDDMIKAYGSKYGIPKDPTRALRKDPRANALMGAEFIKGNAAVLRPVINREPSDTDLYLAHFLGAGGAKKFLSADQKTLGEVLFPKPAKANPSIFSNKGVPRTLAEIYKLFEDKVSKHRALEHHHHHH
modifications: synthetic_Fusion Polypeptide LNT103 with MAS, His tag, and extra sequence
With B2 the “outer membrane permeabilization activity (NPN uptake, fold change over control)” value ([10]; 2 μM, 37° C. 1 hour, compared with LNT101, LNT102, cecropin A 2 μM, polymyxin B 2 μM, EDTA 1 mM) was “higher outer membrane permeabilization activity against gram negative bacterium than the polypeptides LNT101 and LNT102 at the same concentration”, the “outer membrane permeabilization activity (NPN uptake, fold change over negative control)” value ([10]; LNT103 0.29 μM, 0.88 μM, 2.65 μM) was “increased in a concentration-dependent manner” and the “IC50 (cytotoxicity)” value [11] was over 1000 µg/mL.
